Assay results: PMC7125159, “Pyrazinamide triggers degradation of its target aspartate decarboxylase” (Nature Communications, 2020)

Target: the molecule itself
Experiment: dynamic light scattering; drug-free; 1 mg/mL PanD in 50 mM Tris pH 7.5, 200 mM NaCl, 298 K; octamer

B1: Wild-type Mtb Aspartate decarboxylase PanD (PanDWT), cleaved active form (enzyme)
chain 1: MLRTMLKSKIHRATVTCADLHYVG
chain 2: SVTIDADLMDAADLLEGEQVTIVDIDNGARLVTYAITGERGSGVIGINGAAAHLVHPGDLVILIAYATMDDARARTYQPRIVFVDAYNKPIDMGHDPAFVPENAGELLDPRLGVG
notes: not shown: His6, N-terminal, kept; copies: 8 + 8
- stoichiometry N: 8
